Patent publication US20190144549A1 (TILOS THERAPEUTICS, published 2019)

Tests used:
[1] = molecular target: T1, human LAP-TGFβ3 on HT1080 cells (human, UniProt P10600 24-412); test: summary table; binding to human TGFβ3
T1 construct: also called human TGFβ3
T1 sequence: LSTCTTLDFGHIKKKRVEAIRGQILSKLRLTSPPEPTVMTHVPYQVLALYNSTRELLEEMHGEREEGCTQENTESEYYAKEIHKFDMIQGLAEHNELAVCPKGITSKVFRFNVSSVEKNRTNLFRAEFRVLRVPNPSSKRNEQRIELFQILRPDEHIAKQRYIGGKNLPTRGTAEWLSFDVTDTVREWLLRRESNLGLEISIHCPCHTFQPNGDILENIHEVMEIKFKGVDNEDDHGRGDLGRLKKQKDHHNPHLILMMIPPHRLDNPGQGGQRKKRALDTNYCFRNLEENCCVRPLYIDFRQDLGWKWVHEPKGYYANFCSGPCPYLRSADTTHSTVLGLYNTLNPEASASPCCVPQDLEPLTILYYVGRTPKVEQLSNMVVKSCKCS
Protocol: (§1) Briefly, 4×10⁵ each of (a) HT1080 cells, (b) HT1080 cells overexpressing human LAP-TGFβ1, (c) HT1080 cells overexpressing human LAP-TGFβ2, (d) HT1080 cells overexpressing human LAP-TGFβ3, (e) HT1080 cells overexpressing murine LAP-TGFβ1, (f) P3U1 cells, (g) P3U1 cells overexpressing LAP-TGFβ1 and GARP, and (h) P3U1 cells overexpressing LAP-TGFβ1 and LRRC33 were cultured in 96-well plates. The plates were centrifuged for 5 min at 1,500 rpm, liquid was removed, and cells were resuspended with 200 μL FACS buffer. The plates were centrifuged again, diluted primary antibody was added to each well, and the plates were incubated on ice for 20 minutes, followed by centrifugation. The cells were resuspended in 200 μL FACS buffer, centrifuged again, and resuspended in 50 μL diluted secondary antibody (Alexa647-anti-Human IgG or APC-anti-Mouse IgG). The plates were incubated on ice for 20 minutes in the dark, washed twice with 200 μL FACS buffer, and cells from each well (in 200 μL FACS buffer) were read on the Attune NXT instrument.

[2] = molecular target: T2, murine LAP-TGFβ1 on transfected cells (murine, UniProt P04202 30-390); test: cell-based or functional assay
T2 sequence (P04202 30-390): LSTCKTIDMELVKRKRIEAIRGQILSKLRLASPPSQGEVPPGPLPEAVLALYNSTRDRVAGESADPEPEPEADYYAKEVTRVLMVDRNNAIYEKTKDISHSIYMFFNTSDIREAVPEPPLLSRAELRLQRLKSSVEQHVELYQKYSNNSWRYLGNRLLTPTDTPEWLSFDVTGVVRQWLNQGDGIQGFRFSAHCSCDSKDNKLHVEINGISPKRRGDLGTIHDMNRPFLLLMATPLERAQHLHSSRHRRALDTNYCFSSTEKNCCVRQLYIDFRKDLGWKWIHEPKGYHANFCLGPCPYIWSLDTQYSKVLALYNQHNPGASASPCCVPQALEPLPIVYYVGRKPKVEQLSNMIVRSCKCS

[3] = molecular target: T3, human LAP-TGFβ1 on transfected cells (human, UniProt P01137 30-390); test: cell-based or functional assay
T3 sequence (P01137 other isoform, or with tags, fused parts or gaps): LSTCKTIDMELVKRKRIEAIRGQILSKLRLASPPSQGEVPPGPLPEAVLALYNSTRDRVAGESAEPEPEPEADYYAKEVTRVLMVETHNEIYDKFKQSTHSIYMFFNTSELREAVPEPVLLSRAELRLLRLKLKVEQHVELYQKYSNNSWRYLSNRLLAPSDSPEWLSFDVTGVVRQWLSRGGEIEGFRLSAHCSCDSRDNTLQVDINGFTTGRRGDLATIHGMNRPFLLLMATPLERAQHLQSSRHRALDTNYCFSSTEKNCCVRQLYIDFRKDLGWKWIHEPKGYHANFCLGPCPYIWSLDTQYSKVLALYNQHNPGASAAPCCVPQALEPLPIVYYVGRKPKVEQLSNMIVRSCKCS

[4] = molecular target: T4, human LAP-TGFβ2 on HT1080 cells (human, UniProt P61812 21-414); test: summary table; binding to human TGFβ2
T4 construct: also called human TGFβ2
T4 sequence: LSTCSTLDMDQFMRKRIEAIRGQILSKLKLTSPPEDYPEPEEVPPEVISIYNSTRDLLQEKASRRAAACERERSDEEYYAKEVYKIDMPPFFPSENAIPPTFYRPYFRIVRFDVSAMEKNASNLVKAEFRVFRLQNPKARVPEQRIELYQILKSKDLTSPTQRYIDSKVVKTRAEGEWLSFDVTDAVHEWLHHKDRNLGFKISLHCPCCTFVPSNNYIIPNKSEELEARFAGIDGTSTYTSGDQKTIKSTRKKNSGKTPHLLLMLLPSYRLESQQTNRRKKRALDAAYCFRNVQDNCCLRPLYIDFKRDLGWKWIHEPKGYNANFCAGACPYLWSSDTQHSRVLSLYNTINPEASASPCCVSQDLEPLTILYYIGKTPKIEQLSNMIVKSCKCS
Protocol: as §1

[5] = molecular target: T5, LAP-only variant (human LAP without mature TGFβ1) on HT1080 cells (human, UniProt P01137 30-277); test: flow cytometry, HT1080 cells overexpressing the LAP-only variant
T5 construct: Overexpressed on HT1080 cells; also called HT1080-emptyLAP; empty LAP
T5 sequence (P01137 30-277 limits assumed, change not shown): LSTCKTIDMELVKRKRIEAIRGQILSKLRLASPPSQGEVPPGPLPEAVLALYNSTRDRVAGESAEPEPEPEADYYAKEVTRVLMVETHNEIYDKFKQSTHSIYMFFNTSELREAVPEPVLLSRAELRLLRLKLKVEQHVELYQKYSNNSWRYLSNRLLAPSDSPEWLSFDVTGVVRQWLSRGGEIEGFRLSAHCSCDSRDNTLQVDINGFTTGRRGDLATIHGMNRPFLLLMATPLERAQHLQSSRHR
Protocol: as §1
(§2) Briefly, 4×10⁵ each of (a) HT1080 cells, (b) HT1080 cells overexpressing human LAP-TGFβ1, (c) HT1080 cells overexpressing LAP-TGFβ1 with K27C and Y75C mutations, (d) HT1080 cells overexpressing LAP-TGFβ1 with a Y74T mutation, and (e) HT1080 cells overexpressing the LAP-only variant were cultured in 96-well plates. […]

[6] = molecular target: T6, human LAP-TGFβ1 with a Y74T mutation on HT1080 cells (human, UniProt P01137 30-390); test: flow cytometry, HT1080 cells overexpressing the variant
T6 construct: also called HT1080-Y74T; Y74T (open) LAP-TGFβ1 variant
T6 sequence (P01137 other isoform, or with tags, fused parts or gaps Y74T Y74T): as the sequence (P01137 other isoform, or with tags, fused parts or gaps) above, with Y74T counted along it
Protocol: as §1, §2

[7] = molecular target: T1, human LAP-TGFβ3 on HT1080 cells; test: flow cytometry, HT1080 cells overexpressing human LAP-TGFβ3
Protocol: as §1

[8] = molecular target: T4, human LAP-TGFβ2 on HT1080 cells; test: flow cytometry, HT1080 cells overexpressing human LAP-TGFβ2
Protocol: as §1

[9] = molecular target: T7, mature TGFβ1 (free human TGFβ1, without LAP) (human, UniProt P01137 279-390); test: inhibition of a TGFβ1 ELISA after pre-incubation with mature TGFβ1
T7 construct: also called free TGFβ1
T7 sequence (P01137 279-390 limits assumed): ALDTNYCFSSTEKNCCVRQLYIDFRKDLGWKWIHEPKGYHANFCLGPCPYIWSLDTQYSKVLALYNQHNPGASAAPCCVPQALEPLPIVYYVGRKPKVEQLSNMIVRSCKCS
Protocol: To determine whether anti-LAP antibodies 28G11_hIgG1, 22F9_hIgG1, 20E6_hIgG1, 17G8_hIgG1, and 24E3_hIgG1, bind to free human TGFβ1 (i.e., mature TGFβ1 that lacks LAP), the ability of the antibodies to inhibit an anti-TGFβ ELISA was evaluated. Briefly, mature TGFβ1 (1000 μg) was incubated with the indicated anti-LAP antibodies at 10 μg/mL, an isotype control antibody as a negative control or the anti-TGFβ antibody 1D11 as a positive control for 10 minutes on ice. Supernatants were assayed in a TGFβ1 ELISA (R&D Systems) according to the manufacturer instructions to measure free TGFβ1.

[10] = molecular target: T8, recombinant human LAP-TGFβ1-Fc fusion protein (human, UniProt P01137 30-390); test: bio-layer interferometry (ForteBio), single concentration
T8 construct: also called human TGFβ1 in absence of anchor protein (ForteBio); not shown: Fc part, linker and order of fusion not described
T8 sequence (P01137 other isoform, or with tags, fused parts or gaps limits assumed): as the sequence (P01137 other isoform, or with tags, fused parts or gaps) above
Excerpt: The ability of the antibodies to bind in this assay provides definitive evidence that the antibodies bind to LAP-TGFβ1 in the absence of an anchor protein.

[11] = molecular target: T3, human LAP-TGFβ1 on transfected cells; test: summary table; binding to human TGFβ1 on transfected cells
[12] = molecular target: T9, LAP (LAP-TGFβ1) expressed endogenously on murine cells (murine, UniProt P04202 30-390); test: summary table; binding to GARP+ murine cells
T9 construct: Natural LAP-TGFβ1 on primary mouse cells, GARP+ or GARPneg; also called LAP on murine platelets, T cells, Tregs, B cells, tumour immune cells
T9 sequence (P04202 30-390): as the sequence (P04202 30-390) above

[13] = molecular target: T2, murine LAP-TGFβ1 on transfected cells; test: summary table; binding to murine TGFβ1 on transfected cells

B1: 28G11 (antibody, V domains shown)
VH: EVKLVESGGGLVQPGGSLSLSCAASGFTFTDYYMSWVRQPPGKALEWLGFIRNKPNGYTTEYSASVKGRFTISRDNSQSILYLQMNVLRAEDSATYYCARYTGGGYFDYWGQGTTLTVSS
VL: DIQMTQTTSSLSASLGDRLTISCRASQDISNYLNWYQQKPDGTVKLLIYYTSRLHSGVPSRFSGSGSGTDYSLTISNLEQADIATYFCQQGDTLPWTFGGGTKLEIK
notes: Mouse hybridoma antibody; Used biotinylated or dye-conjugated in cell assays; also called 28G11_(hyb); 28G11_hyb
binding result [1]: no binding
IC50 of inhibition of TGFβ1 activation, P3U1 cell assay [2]: 1 µg/mL
IC50 of inhibition of TGFβ1 activation, P3U1 cell assay [3]: 1.4 µg/mL
binding result [4]: no binding

B2: 28G11_hIgG1 (antibody, V domains shown)
VH: EVKLVESGGGLVQPGGSLSLSCAASGFTFTDYYMSWVRQPPGKALEWLGFIRNKPNGYTTEYSASVKGRFTISRDNSQSILYLQMNVLRAEDSATYYCARYTGGGYFDYWGQGTTLTVSS
VL: DIQMTQTTSSLSASLGDRLTISCRASQDISNYLNWYQQKPDGTVKLLIYYTSRLHSGVPSRFSGSGSGTDYSLTISNLEQADIATYFCQQGDTLPWTFGGGTKLEIK
notes: 28G11 in human IgG1 format, by its name
binding result [5]: no binding
binding result [6]: no binding
binding result [7]: no binding
binding result [8]: no binding
binding result [9]: no binding (tested: 10 µg/mL)

B3: 16B4 (antibody, V domains shown)
VH: QVTLKESGPGILQPSQTLSLTCSFSGFSLNTFGMGVGWIRQPSGKGLEWLAHIWWDDDKYYNPALKSRLTISKDTSKNQVFLKIANVDTADTATYYCARIYYYGSWGLYYFDYWGQGTTLTVSS
VL: DIQMTQTTSSLSASLGDRVTISCRASQDISNYLNWYQQKPDGTVKLLIYYTSRLHSGVPSRFSGSGSGTDYSLTISNLEQEDIATYFCQQGNTLPPTFGGGTKLEIK
binding result [10]: no binding
binding result [11]: no binding

B4: 7H4 (antibody, V domains shown)
VH: DVQLQESGPGLVKPSQSLSLTCSVTGYSITSGYYWNWIRQFPGNKLEWMGYISYDGTNNYNPSLKNRISITRDTSKHQFFLKLNSVTTEDTATYYCARSFYNNYFDFWGQGTTLTVSS
VL: DIQMTQSPSSLSASLGGKVTITCKASQDIDKYIAWYQHKPGKGPRLLIHYTSTLQPGIPSRFSGSGSGRDYSFNISNLEPEDIATYYCLQYDNLRTFGGGTKLEIK
binding result [12]: binds
binding result [13]: binds
